T1: MtrA (Mycobacterium tuberculosis, UniProt P9WGM7 1-228)
T1 sequence: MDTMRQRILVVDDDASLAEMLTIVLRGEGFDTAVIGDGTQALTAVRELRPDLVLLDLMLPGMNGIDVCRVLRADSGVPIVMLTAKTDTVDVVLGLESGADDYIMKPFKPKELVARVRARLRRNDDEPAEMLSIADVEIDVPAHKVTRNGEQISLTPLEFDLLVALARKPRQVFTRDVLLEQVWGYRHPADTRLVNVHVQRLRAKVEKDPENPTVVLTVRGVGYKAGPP

T2: MtrA (Mycobacterium tuberculosis) (UniProt P9WGM7)
T2 sequence: T1 sequence

B1: Rv0574cp (dsDNA)
DNA 1: GCGGTCTTGAGGACCTTCGGCCCCACCCACGAGGCCGCCG
DNA 2: CGGCGGCCTCGTGGGTGGGGCCGAAGGTCCTCAAGACCGC
B2: CgluproPp (dsDNA)
DNA 1: GACTTTTCACCCCGAACCTTA
DNA 2: TAAGGTTCGGGGTGAAAAGTC
B3: Rv0341p (iniB) (dsDNA)
DNA 1: CGCCGGTCACGCCGGCGAACA
DNA 2: TGTTCGCCGGCGTGACCGGCG
B4: CglumepAp (dsDNA)
DNA 1: CCCCTAGCACGGCGTGTTTGG
DNA 2: CCAAACACGCCGTGCTAGGGG
B5: Negative control (dsDNA)
DNA 1: CGGAGGTGGTTTTCGCTGCT
DNA 2: AGCAGCGAAAACCACCTCCG
B6: Rv3476cp (kgtP) (dsDNA)
DNA 1: CTGCATCCACGCCGGCGACACGCCGAGGGACG
DNA 2: CGTCCCTCGGCGTGTCGCCGGCGTGGATGCAG
B7: S1 (dsDNA)
DNA 1: GCGGTGTAGTTATCACGCCG
DNA 2: CGGCGTGATAACTACACCGC
B8: S4 (dsDNA)
DNA 1: GCGAGCCGTTGCCGGTAGGTTGCGGCTGGT
DNA 2: ACCAGCCGCAACCTACCGGCAACGGCTCGC
B9: S3 (dsDNA)
DNA 1: TTTCAGCGTGGAAACGGCACTC
DNA 2: GAGTGCCGTTTCCACGCTGAAA
B10: S5 (dsDNA)
DNA 1: AACACGAGGATCGCGAGCCGTTGCCGGTAGGTTGCGGCTGGT
DNA 2: ACCAGCCGCAACCTACCGGCAACGGCTCGCGATCCTCGTGTT
B11: S2 (dsDNA)
DNA 1: TCACGCCGTTTCAGCGTGGAAACGGCACTC
DNA 2: GAGTGCCGTTTCCACGCTGAAACGGCGTGA

The source of these data is publication PMC2945938, “The characterization of conserved binding motifs and potential target genes for M. tuberculosis MtrAB reveals a link between the two-component system and the drug resistance of M. smegmatis”.

One data set has as its target T1, MtrA. As to the kind of experiment: EMSA. The conditions noted are these: protein: recombinant; tags: 6His (pET28a) or GST (pGEX-4T-1); chain copies: 2; label: 32P. (In EMSA bound probe runs differently from free probe, usually more slowly.)
With B1, the binding result is “binds”.
On the same count and under the same terms, as for B2, the entry is “binds”.
As for B3, the binding result is “binds”.
Same read-out and setting: as for B4, the entry is “binds”; as for B5, “no binding”.
On to B6, for which the binding result is given as “binds”.

The target of a further data set is T2, MtrA (Mycobacterium tuberculosis). The data set can be described thus: DNase I footprinting.
Details: not given
For the molecule “AATTCTACGGAAAACTGTTAGCTTCGGGCGGTGTAGTTATCACGCCGTTTCAGCGTGGAAACGGCACTCGACAATCAAGCGAGGATGGC (double strand) [S6 (84 bp)]”, the binding result is “binds”.
On the same count and under the same terms, with “AATTCTAGCGGCCCGGACAACTTGAACCGGGTGTTTTCAACACGAGGATCGCGAGCCGTTGCCGGTAGGTTGCGGCTGGT (double strand) [S7 (75 bp)]” the entry was “binds”.

For a further data set, the target named is T1, MtrA. As to the kind of experiment: EMSA; 100-600 nM MtrA. The conditions noted are these: protein: recombinant; tags: 6His (pET28a) or GST (pGEX-4T-1); chain copies: 2; label: 32P.
Take B7: the binding result was “binds”.
With B8, the binding result is reported as “no binding”.
For the molecule B9, the binding result was “no binding”.

Staying with this data set, now noted: protein: recombinant; tags: 6His (pET28a) or GST (pGEX-4T-1); chain copies: 2; label: 32P (EMSA).
Turning to B10, the binding result is “binds”.
Still for that read-out and setting: as for B11, the entry is “binds”.
